Assay results reported in patent publication US20230285585A1, “TREATMENT OF PULMONARY HYPERTENSION” (PHILOGEN S.P.A., priority 2020, published 2023).

What was measured:
[1] = test system: Monocrotaline (MCT) induced pulmonary hypertension (PH) in C57BL/6 mice; assay: Right heart catheterization in MCT induced PH mouse model (Example 4); assay type: in vivo; conditions: for pressure values in the right ventricle, RVPsys (result in words): in contrast to KSF containing control immunocytokines
Text: To induce Pulmonary Hypertension (PH), C57BL/6 mice (bodyweight: 25-30 g) were used. The animals were obtained from ZET facility (Zentrale Experimentelle Tierhaltung) of the University Hospital Jena (UKJ, Jena, Germany). Prior to PH induction, mice were allowed to acclimatize for at least 7 days with ad libitum access to food and water as well as controlled light/dark cycles. In this set of experiments, 50 animals were investigated divided into the following 7 experimental groups: • sham induced controls (n=10) • MCT induced PH (n=8) • MCT induced PH+MACI (n=8) • MCT induced PH+F8mIL9F8 in CrAb format (n=6) • MCT induced PH+KSFmIL9KSF in CrAb format (n=6) • MCT induced PH+F8_(IgG-HC4)-mIL9 (n=6) • MCT induced PH+KSF_(IgG-HC4)-mIL9 (n=6)
For PH induction, the Monocrotaline (MCT, Carl Roth, Germany) method was used.
The sham induced controls were injected with 30 μl NaCl not containing MCT at day 1 (single dose; intraperitoneally, i.p.). […] The other 6 experimental groups were injected with MCT (single dose; intraperitoneally, i.p.; 60 mg/kg body weight; volume 30 μl). Animals in the MCT induced PH+MACI group received the drug (Macitentan, Actelion Pharmaceuticals Ltd.) from day 14 to day 28 (once daily; per os; 15 mg/kg body weight).
Animals in the MCT induced PH+F8mIL9F8 in CrAb format group received F8mIL9F8 3 times on days 14, 16 and 18 (intravenously, i.v.; 200 μg/injection; volume 154 μl). Animals in the MCT induced PH+KSFmIL9KSF in CrAb format group received KSFmIL9KSF 3 times on days 14, 16 and 18 (intravenously, i.v.; 198 μg/injection; volume 182 μl).
Animals in the MCT induced PH+F8_(IgG-HC4)-mIL9 group received F8_(IgG-HC4)-mIL9 3 times on days 14, 16 and 18 (intravenously, i.v.; 261 μg/injection; volume 137 μl). Animals in the MCT induced PH+KSF_(IgG-HC4)-mIL9 group received KSF_IgG-HC4mIL9 3 times on days 14, 16 and 18 (intravenously, i.v.; 258 μg/injection; volume 161 μl).
On day 28 after MCT injection, mice of all experimental groups were deeply anesthetized with a single dose of 100 mg/kg body weight ketamine and 10 mg/kg body weight Xylazin in approximately 60 μl each administered i.p.
Right heart catheterization using a 1.4 F micro conductance pressure-volume catheter (Model SPR-839; Millar Instruments Inc; PowerLab system, ADInstruments Ltd., Oxford, UK) was performed via the right vena jugularis interna to measure the systolic right ventricular pressure and thereby verify the success of the experimental setting. Mice were then sacrificed in deep anesthesia and analgesia to carry out cardiac blood collection after thoracotomy and to harvest the organs.
(§1) Statistical analyses were performed using IBM SPSS statistical software, version 25.0 (IBM SPSS Statistics for Windows. Armonk, N.Y., USA). Data are expressed as mean±standard deviation. […]

[2] = test system: Monocrotaline (MCT) induced pulmonary hypertension (PH) in C57BL/6 mice; assay: Echocardiographic assessment in MCT induced PH mouse model (Example 4); assay type: in vivo; conditions: in contrast to KSF containing control immunocytokines
Procedure: To induce Pulmonary Hypertension (PH), C57BL/6 mice (bodyweight: 25-30 g) were used. The animals were obtained from ZET facility (Zentrale Experimentelle Tierhaltung) of the University Hospital Jena (UKJ, Jena, Germany). Prior to PH induction, mice were allowed to acclimatize for at least 7 days with ad libitum access to food and water as well as controlled light/dark cycles. […]
Echocardiographic assessment was performed on day 28 using the Vevo 770 Rodent-Ultrasound-System, Visual Sonic, Canada, 17 MHz probe RMV176. […] Body temperature and respiratory rate were continuously monitored. All surrogate parameters of right ventricular (RV) morphology and function were assessed, among others, RV basal and medial diameters (in mm), RV length (in mm), tricuspid annular plane systolic excursion (TAPSE, in mm), right atrial area (RA area, in mm^2) or main pulmonary artery diameter (MPA, in mm).
as §1

[3] = biological target: T1, recombinant fibronectin 11A12 domain (EDA) (Homo sapiens, UniProt P02751); assay: Biacore surface plasmon resonance binding analysis; conditions: SPR, BIAcore X100, CM5 chip coated with recombinant fibronectin 11A12 domain
T1 construct: recombinant fibronectin 11A12 domain
Procedure: Binding affinity was determined by surface plasmon resonance using a BIAcore X100 instrument using a CM5 chip coated with recombinant fibronectin 11A12 domain. Samples were injected as serial-dilution, using a concentration range from […] to 125 nM.

T1 sequence (P02751 1629-1905 limits assumed): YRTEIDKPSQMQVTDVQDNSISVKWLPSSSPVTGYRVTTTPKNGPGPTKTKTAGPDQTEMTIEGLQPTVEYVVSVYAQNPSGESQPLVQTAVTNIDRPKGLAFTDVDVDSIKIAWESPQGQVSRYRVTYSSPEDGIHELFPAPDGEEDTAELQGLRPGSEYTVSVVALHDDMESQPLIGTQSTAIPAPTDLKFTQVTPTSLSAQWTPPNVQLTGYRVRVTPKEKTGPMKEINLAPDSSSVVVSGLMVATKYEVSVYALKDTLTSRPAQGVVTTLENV

Molecule	apparent KD [3]	also measured
F8(IgG4-HC)-mIL9: two murine IL9 moieties fused to C-termini of heavy chains of F8 IgG4; SEQ ID NOs: 61 and 62	–	treatment effects relative to MACI (result in words) [1]: improved compared with the effects achieved by MACI; pressure values in the right ventricle, RVPsys (result in words) ([1]; listed as F8_(IgG-HC4)-mIL9): significantly reduced; pressure values in the right ventricle, RVPsys (result in words) ([1]; listed as IgG-HC4mIL9): significantly reduce; echocardiographic signs of right ventricular load and dysfunction (result in words) [2]: significantly improved a variety
hIL9-F8(db): human IL9 conjugated to the N-terminus of the F8 diabody; SEQ ID NO: 23	in the nM range	–
F8(scFv)-hIL9-F8(scFv): human IL9 conjugated at N- and C-terminus to an F8 scFv, CrAb format; SEQ ID NO: 18	in the nM range	–
F8(db)-hIL9: human IL9 conjugated to the C-terminus of the F8 diabody; SEQ ID NO: 22	in the nM range	–
F8(db)-mIL9: murine IL9 conjugated to the C-terminus of the F8 diabody; SEQ ID NO: 20 (protein, of murine IL9 conjugated to the C-terminus of the F8 diabody (F8(Db)-mIL9)) EVQLLESGGGLVQPGGSLRLSCAASGFTFSLFTMSWVRQAPGKGLEWVSAISGSGGSTYYADSVKGRFTISRDNSKNTLYLQMNSLRAEDTAVYYCAKSTHLYLFDYWGQGTLVTVSSGGSGGEIVLTQSPGTLSLSPGERATLSCRASQSVSMPFLAWYQQKPGQAPRLLIYGASSRATGIPDRFSGSGSGTDFTLTISRLEPEDFAVYYCQQMRGRPPTFGQGTKVEIKGGGGSGGGGSGGGGSQRCSTTWGIRDTNYLIENLKDDPPSKCSCSGNVTSCLCLSVPTDDCTTPCYREGLLQLTNATQKSRLLPVFHRVKRIVEVLKNITCPSFSCEKPCNQTMAGNTLSFLKSLLGTFQKTEMQRQKSRP	in the nM range	–
mIL9-F8(db): murine IL9 conjugated to the N-terminus of the F8 diabody; SEQ ID NO: 21 (protein, murine IL9 conjugated to the N-terminus of the F8 diabody (mIL9-F8(Db))) QRCSTTWGIRDTNYLIENLKDDPPSKCSCSGNVTSCLCLSVPTDDCTTPCYREGLLQLTNATQKSRLLPVFHRVKRIVEVLKNITCPSFSCEKPCNQTMAGNTLSFLKSLLGTFQKTEMQRQKSRPGGGGSGGGGSGGGGSEVQLLESGGGLVQPGGSLRLSCAASGFTFSLFTMSWVRQAPGKGLEWVSAISGSGGSTYYADSVKGRFTISRDNSKNTLYLQMNSLRAEDTAVYYCAKSTHLYLFDYWGQGTLVTVSSGGSGGEIVLTQSPGTLSLSPGERATLSCRASQSVSMPFLAWYQQKPGQAPRLLIYGASSRATGIPDRFSGSGSGTDFTLTISRLEPEDFAVYYCQQMRGRPPTFGQGTKVEIK	in the nM range	–
